Data published in patent US20250170067A1 (published 2025).
One block for each molecule: values may come before it.

Key:
VEGF = VEGF (UniProt P15692); test: co-incubation of VEGF with particles, particulate removed, free VEGF in supernatant measured by ELISA
[1] = target: AB160 (nanoparticle of albumin-bound paclitaxel and bevacizumab, ratio about 10:4, average size 160 nm) (UniProt P02768); test: flow cytometry of particles stained with goat anti-mouse IgG and PE
[2] = target: T1, ABRAXANE® / albumin-bound paclitaxel (UniProt P02768 25-609, paclitaxel non-covalently bound); test: as above
T1 construct: Nanoparticle of many albumin molecules with paclitaxel, not a single polypeptide; also called ABX; Paclitaxel Albumin-stabilized Nanoparticle Formulation

[3] = target: T1, ABRAXANE® / albumin-bound paclitaxel; test: co-incubation of VEGF with particles, particulate removed, free VEGF in supernatant measured by ELISA
Procedure: AB160 was prepared as described and 2000 μg/ml VEGF was added to the AB160 complex or ABX alone. The VEGF was incubated with the nanoparticles for 2 hours at room temperature. The suspension was spun at 6000 rpm for 15 minutes, supernatants were collected and free VEGF was measured by ELISA. Briefly, ELISA plates were coated with capture antibody overnight at 4° C. Plates were washed, blocked and standards and samples were added. After washing, detection antibody was added and plates were developed with substrate (R and D Systems, Minneapolis, MN). Absorbance was measured at 450 nm using a Versamax ELISA plate reader (Molecular Devices, Sunnyvale, CA). The concentration of unbound VEGF was determined with a standard curve from 0 to 2000 μg/ml.

- % VEGF unbound (VEGF): < 10%
Molecule: AB160 (nanoparticle of albumin-bound paclitaxel and bevacizumab, ratio about 10:4, average size 160 nm) (from UniProt P02768 25-609)

- % positive [1]: 41.2%
- % positive [2]: 6.7%
Molecule: goat anti-mouse IgG (antibody)

- binding result [3]: no binding (tested: 2000 µg/ml VEGF)
B1: VEGF (ligand, UniProt P15692-4 27-191, looked up)
chain: APMAEGGGQNHHEVVKFMDVYQRSYCHPIETLVDIFQEYPDEIEYIFKPSCVPLMRCGGCCNDEGLECVPTEESNITMQIMRIKPHQGQHIGEMSFLQHNKCECRPKKDRARQENPCGPCSERRKHLFVQDPQTCKCSCKNTDSRCKARQLELNERTCRCDKPRR
